# In publication PMC2909203, “Defining the Functional Domain of Programmed Cell Death 10 through Its Interactions with Phosphatidylinositol-3,4,5-Trisphosphate” (PLoS ONE, 2010):
# Molecular target: the molecule itself
# Test: SEC-MALS; 0.2 to 0.4 mg/ml purified His-tag protein in 10 mM phosphate buffer, pH 7.0, 500 mM NaCl; self-association, dimer the only species
row,Protein,stoichiometry N
1,"Recombinant murine 6xHis-PDCD10 Δ5KA mutant (K169A, K172A, K179A, K183A, K186A) (natural protein, PDCD10 (CCM3), murine, full length, with five K-to-A mutations made by site-directed mutagenesis; Dimer in solution by SEC-MALS; also called Δ5KA PDCD10; mutant Δ5KA ccm3; source: E. coli BL21DE3, purified; not shown: 6xHis, N-terminal, kept) not shown",2
2,"Recombinant murine 6xHis-PDCD10, wild type (natural protein, PDCD10 (CCM3), murine, full length, amplified from a mouse fibroblast cDNA library and cloned into pMCSG7-His; 212 amino acids; Dimer in solution by SEC-MALS; also called CCM3; WT; not shown: 6xHis, N-terminal, kept) not shown",2
